Assay [1] addresses T1, SARS-CoV-2刺突S1亚基蛋白(Sino公司，货号:40591-V02H) (SARS-CoV-2, UniProt P0DTC2 16-685).
T1 construct: domain: S1; also called SARS-CoV-2(2019-nCoV)病毒的刺突蛋白S1
The assay is described as follows: blocking ELISA, coated S1 subunit protein, competitor His-tagged ACE2.

The target of assay [2] is T2, SARS-CoV-2刺突S1-His重组蛋白(Sino公司，货号:40591-V08H) (SARS-CoV-2, UniProt P0DTC2 16-685).
T2 construct: domain: S1; also called S1蛋白; SARS-CoV-2刺突蛋白S1
The assay can be described thus: ELISA, coated S1-His 1.0 μg/mL, goat anti-human IgG-HRP detection. In general terms: ELISA stands for enzyme-linked immunosorbent assay.

In assay [3] the target is T3, SARS-CoV-2刺突蛋白S1的RBD结构域重组蛋白(Sino公司，货号40592-V05H) (SARS-CoV-2, UniProt P0DTC2 319-541).
T3 construct: domain: RBD结构域; also called RBD结构域的重组蛋白
The assay is described as follows: blocking ELISA, coated RBD, competitor His-tagged ACE2.

Assay [4] concerns the target T3, SARS-CoV-2刺突蛋白S1的RBD结构域重组蛋白(Sino公司，货号405 …). The assay is described as follows: ELISA, coated RBD 1.0 μg/mL, goat anti-human IgG-HRP detection.

B1: 抗SARS-CoV-2的单克隆抗体1D7 (antibody, V domains shown)
VH: EVQLVESGGGWIQPGGSLRLSCAASGLTVSSNYMSWVRQAPGKGLEWVSVIYSGGSTYYADSVKGRFTISRDNSKNTLYLQMNSLRAEDTAVYYCARDLVVYGMDVWGQGTTVTVSS
VL: AIRMTQSPSSLSASVGDRVTITCRASQSISSYLNWYQQKPGKAPKLLIYAASSLQSGVPSRFSGSGSGTDFTLTISSLQPEDFATYYCQQSYSTLGMYTFGQGTKLEIK
notes: also called 1D7抗体; 人源抗SARS-CoV-2抗体1D7
Usually IC50 stands for the concentration needed to halve the response being measured. Higher therefore signals a need for much substance. As a reminder, the EC50 is the concentration needed to bring the measured effect to its halfway point. High values mean lower potency in that assay, low ones higher potency in that assay. In the case of B1, the half-maximal inhibitory concentration (IC50) in assay [1] was determined as 7.8 nM; in assay [3], 4.1 nM. In addition, the figures for the concentration giving a half-maximal response (EC50) in assay [2] and in assay [4] were 0.092 nM and 0.055 nM, respectively.

These data come from patent publication CN111690059A (WUHAN INST OF BIOLOGICAL PRODUCTS CO LTD, dated 2020).
